This series in a line: soluble on expression in E. coli; label from the status in PepcDB or PDB records.
“MSLKDVSLSSFDAHDLDLDKFPEVVRDRLTQFLDAQELTIADIGAPVTDAVAHLRSFVLNGGKRIRPLYAWAGFLAAQGHKNSSEKLESVLDAAASLEFIQACALIHDDIIDSSDTRRGAPTVHRAVEADHRANNFEGDPEHFGVSVSILAGDMALVWAEDMLQDSGLSAEALARTRDAWRGMRTEVIGGQLLDIYLESHANESVELADSVNRFKTAAYTIARPLHLGASIAGGSPQLIDALLHYGHDIGIAFQLRDDLLGVFGDPAITGKPAGDDIREGKRTVLLALALQRADKQSPEAATAIRAGVGKVTSPEDIAVITEHIRATGAEEEVEQRISQLTESGLAHLDDVDIPDEVRAQLRALAIRSTERREGHHHHHH”: the “soluble on expression in E. coli” value is given as “soluble”.
To “AIAVHRDPAEELWCELWQPGVDITRKMNAIFGLKEIGTERAVTLLCAALLDARERSVLVRHEIAYVLGQIQSAASIKTLTDRLIDTDENSIVRHECGEALGAVRAFAVRPILQKLCGDAVPEVRETCVLALERLRWLEEKSTNEERVRETSAKAFKLFETVDPAPAFVAPDDLEASWSNAELGELLLNENEPLFRRYRALFTLRDRNTDDTAGVIAAALRRDTSSALFRHEVAYVLGQMSRACTLPALESALADTHEHAMVRHEAAEAIGAIGNSSACDILRRFLRDANVIVRESCQVALDIAGISDDCQFMD” belongs “soluble”; to “MMSQQFNVAIFGATGAVGETMLEVLQEREFPVDELFLLASERSEGKTYRFNGKTVRVQNVEEFDWSQVHIALFSAGGELSAKWAPIAAEAGVVVIDNTSHFRYDYDIPLVVPEVNPEAIAEFRNRNIIANPNCSTIQMLVALKPIYDAVGIERINVTTYQSVSGAGKAGIDELAGQTAKLLNGYPAETNTFSQQIAFNCIPQIDQFMDNGYTKEEMKMVWETQKIFNDPSIMVNPTCVRVPVFYGHAEAVHVETRAPIDAEQVMDMLEQTDGIELFRGADFPTQVRDAGGKDHVLVGRVRNDISHHSGINLWVVADNVRKGAATNAVQIAELLVRDYF”, “not soluble”.
As for “MGSDKIHHHHHHMTFGEKLLNAASTRGRLCVGIDPHESLLTSWGLPVNVDGLAEFSRACVEAFADTVALVKPQVAFYERFGSAGFAILEETIQTLRERGCLVVSDAKRGDIGSTMAGYASAWLDPASPLSSDAVTVSPYLGFHSLDPVFELAEQHGRGVFVLAATSNPEARELQDQQNADGVSISQQIVDQAAALNAPYMAQGKAGNIGVVIGATLSKPPRLSTLGGAILMPGVGAQGGTASDVDEIAGDMAHLAFPNVSRSILATGPDIAEMKNSVAKNAADFPGFPRS”, the “soluble on expression in E. coli” value is on record as “not soluble”.
“GSHMRLSDYFPESSISVIHSAKDWQEAIDFSMVSLLDKNYISENYIQAIKDSTINNGPYYILAPGVAMPHARPECGALKTGMSLTLLEQGVYFPGNDEPIKLLIGLSAADADSHIGAIQALSELLCEEEILEQLLTASSEKQLADIISRG”: the “soluble on expression in E. coli” value was “soluble”.
The same measure for “MGSDKIHHHHHHMDIKQLRYFVEVARREHISDAALELNIAQSAISRQITQLEKELGVTLFKRSGRNIILTVEGRQLLSQATQILELMDKTIHSFQQHVSHNQQTIYIGYEESDASQMILPLIQTFEQQSNSTMIPQLTKHDKLLDQILSNQLDLAITEFTPVLERETHLRVMPLFEENYYMYVPKSHPLAMTVHPPLSQFTNQSLYCLEPMTSSIKSKLIEKTKAQVRMISDMKLAQHILSHNKGFIISSQNSLLYDHVNWTKIPLNHTELKRMLCVVMRKDNKKNDINIAWNLICTLLNKSTIY”: “not soluble”; for “GPGSMHAFRTRDITLRVPSKDKLLRFSFCSSRHLLAETIRRHDLLRSTGAHVDFLQLLGTQITFTSLLASALEGEERVEARFTAEEATILTEALALGECRCYLRPEYNAQLAECGLPTFPLRVNRILYRQEKPFSSVVHADLAELLQPPCDVASSFAAASSGANEASGAPFSLYLPDMERRVPLEAWKSFFSYNSSLHAYNYLRRSDGSVPAVWLQSRIDAVRLVDHGFLNVDSTAAAAAWQRGEACSDEDDEKAQDIRRALLHAIPFSFGVVVTPLAAGVAVDQRVNQLNRVVMEAAALLSAPSGGGATVTSALQPLLDRCAEKHTACQHILSLVSGDHDGAYQAAVAARQYNDDPAQVAAVVDPIRRALGVQDFVVPLAATEAARSGLDFFCRCSKQNVLESLVSAPPRALESLKGSDNTVHCSFCGRRYKLAGAEWQELEMARSASTPPQ”: “not soluble”.
Take “MSISASEARQRLFPLIEQVNTDHQPVRITSRAGDAVLMSADDYDAWQETVYLLRSPENARRLMEAVARDKAGHSAFTKSVDELREMAGGEE”: the “soluble on expression in E. coli” value is reported as “soluble”.
On to “MGSDKIHHHHHHQSFTPGEIWPDNHQVHINAHGGGILYENGTYYWFGEHKTEGEAGNLANVGVHCYSSDDLYHWKDCGIALSVIENDPGHPISKGCILERPKVIYNPLTKKYVMWFHLEPKGAGYSGALSGIALSDRVTGPYTFLKAVRPNAGSWPINVLPIHKTTRRPSAEEERQCTGGSLPAHPDSLNILGRDMEQGQMARDMNLFVDDDGKAYHIYSSEENSTLHIAELDPTYTGYTGKYIRVFINRFMEAPAMFKKDGNYYLIMSGCSGWNPNAARSAIASSIWGEWKELGNPCIGQDADLTFHSQSTYILPVQGKKNQFIYMGDRWTPQNAIDGRYIWLPIHFEGPKPIIEWKDSWTLD”, for which the “soluble on expression in E. coli” value is “not soluble”.
For “PFSWMRYIVISRKDLEEDGREILIHEMAHIQNRHSIDLLVADICIFFQWFNPGIWLLKQELQNIHEYEADETVINEGIDAKDYQLLLI”, the “soluble on expression in E. coli” value is listed as “not soluble”.
The same measure for “MASYTLRQLKYFVTTVECGSVAEASRKLYIAQPSISTAVKGLEESFGVQLFIRHHAQGVSLTPAGARFYRKAQELLRMAHEFEQNALADNDVIAGQIDIGCFETVAPLYLPGLIAGFRQAYPGVEIRIRDGEQQELVQGLTSGRFDLAFLYEHDLDSTIETEPLMPPQRPHALLPEGHRFAGQAQVSLRDLCLEPMILLDVQPSRTYFVSLFEELGLTPNIAFSSPSIEMVRGMVGQGFGFSLLVTRPHSECTYDGKKVVMVDLAEPVSTSGLAAAWLKRAQLTKPARLFVDYCREQLGKLAERRH”: “soluble”; for “MSTRWRYYNSKRGNGFRGRGRGRGRGTSLTAVALPRDDNFHKGAQDGAYFKDMPMDPEQFRDETVLSLSFAQGMLGAAYYEQSSQLLKIMNDISEDLEFRFLKRLIDDVKPTLIIANRSQDLEFIKFLTTRYDPQEKIYEDGTTEEGTSEDTVPTWDSSLAYSTDETTAEKEEKEEDEDDDDEGLPAKLNKLPNNFFRMSRAIERLKAMAGSHDSSMTEEDKYIIIKMRFDIEAVNMIRSFGALLLFLDETRMGVTDDPLSVTSPIKSIKTFTLGNLVEIDFNTIQALDILPKETENKKTFGQGRSLYQLMDKCRSTVGKKCLRKWFRNPTTDRDDLVSRQKCVHYFKQDWNAEVTAKLSSILGRVKALNSVFQKFQSGTAQLIHWECFVSTVNALVEILNIIRQTPISKEFPVESDLLREVSEIAVIAGSIINFAESKIQGRVTVMNGIDEELDEIRDTYENMPMVLTAIAKQEEARLGLPPYSNVACVYIPLVGFVLSVPRDYGVESQPDMTLLYSTHEDLRVRNATTSRLDDEFGDILMRLIDSQTAIILTLKTRVMKKKRSIIKLLSIASRIDVLISFGLIAAQNGWNCPALVDEPVIEAVELYHPISVLVVKKSFVPNQVSSGRDGIKASIITGPNACGKSVYMKSIGIMVFLSHIGSFVPARHAKIGIVDRIVTRMFTVDSVLDGMSTFAKDVEQVALALRKATGNSLVIIDEFGKGTMTEVGLSLLASVMTYWMNRGADRCPHIFLSSHFHALPNYIPLETNIATFLTFTVLREAGGKIKYLFRMTPGLVDCSFALSVAKEEGIPPPVIGRACRIYKALKAGTLLKEIKAEVSNDNEKQLVEDMDVVLADEDGFMAAVESFVKRKKTSFCESSMRNVSEEIEKERSEASTPASKSRSTITARSNSVLSSRSMASVDQLSVLDALLPKKKKKKVTGSSMESSMSPDPFQEEDEGTEGEEDQISAPVSRPTLPSVQKYASEEEKQQSINSRHSFSTRTAIHIPTPIQMGEAGGVKRPRSTSTSSPGPSASKSVRTEVFKKTPNVKESQVLETPKQLSISSFLEPKFPSSEKDVISRVSERYLQSDPFKTPISDRRSQQSSRHSTPKNRSMNQSLIQSARDTPHETIRSSNEVNPEFFNIFNFPDDSILKSQDTYDPNVTPRSSSRRELRPDVSHSQNSQFGEVFSELGTQFSIFNSQQSFPGNSMGTTNPDCSIFDDFFANSQDGEKKIDSTKTSMPIVNSDNFIFKTPEPRSSEKQRSLLKNKGQASNSSISPSSLILGQLAFGDVDQTPRPRGDNPIEFQYDVVDDDDPIFEEKNCSAPVFEFLKSNDDEEDDEFLKSFLETEGSLHIDTSADETIDRSKRS”: “not soluble”.
The same measure for “MVTINNARKILQRVDTLPLYLHAYAFHLNMRLERVLPADLLDIASENNLRGVKIHVLDGERFSLGNMDDKELSAFGDKARRLNLDIHIETSASDKASIDEAVAIALKTGASSVRFYPRYEGNLRDVLSIIANDIAYVRETYQDSGLTFTIEQHEDLKSHELVSLVKESEMESLSLLFDFANMINANEHPIDALKTMAPHITQVHIKDALIVKEPGGLGHKACISGQGDMPFKALLTHLICLGDDEPQVTAYGLEEEVDYYAPAFRFEDEDDNPWIPYRQMSETPLPENHLLDARLRKEKEDAINQINHVRNVLQQIKQEANHLLNH”: “soluble”.
The same measure for “MGYFSNAQRHAYESLLPRYGIPLTEEPVDLDSIFGRTAPGILEIGSGMGETTAEIARQHPEKDFIAIEVHAPGIGSLLGQIEKHRLTNLRIIPHDAKLVLQQMFTSESLDGIHIFFPDPWPKARHHKRRLIQPDFVSLLCDRLKPGGYLHIATDWEDYATHILHVLRSEERFVNTAVDYAARPAYRPLTKFEQRGMKLGHTIRDIIFTRTALEHHHHHH”: “soluble”; for “MAHHHHHHMQSALRSFSEAAVGLGTSQEKLAAFIAFTNQEKLRVPQLALLRELRRQLVAEEAIAERGRHHQQPDYGVSKRSSNASAAYQDSGDQNAHLSDLRKVNVLCSSKTEKSLQCSKTLSLNHQRGDSTTGAHKTRFQSPRFSSLKSVPFAQAGAANDEYDEDIRGFGARDFAPTPTPSGKLPYKPRDVCLLNSSYFANRSIRSDGSNPCGAPLPTSSPGTPSPSWRGAMTATAFAKLPAPSQQPLLAVDSSLGTVIDVDSEFSLVREAEDTAESRFAPKQDLSIVSMNSSQLELLNIAELAASSSEAALAQPPAAAVLTGIREKVADGSLSKHTVTLFHESNEKRSRGVAASTAAEVAVASVTASIAERKPAPSSQPSTQRGLCGYTNPGNFASLLVPNVLARPVSPPAERTVAPFSLRVAPASTSPSDKEKAVTLEQQEGMASTTAVTIGSTDSAGPAAASVASRLPSPPLITQAEENDGFVYYCANPSHSVIDSYAGRRKLLAVTVKL”: “not soluble”.
For the sequence “GPGSMPHSMDTTLFSDENRIDRGDSLLFHCVQLSQGGTDSHRYFFGCYFPRWRGFYMDEARELPGPLGYNVTRHFPAFPFDVYLKDDGEHFLTDDFQIGSIFTLGGPLNQRDDGQKRYKVVHCDDSQLRTRTGKTLAFIGNNVSGLLQQTHRVSGEAIDALKRIREAYIFNVGNGIPEVGIKAMGRHFRKVGSDGRRWMSYEGIVRFVKDSRNFNATLSFSDTQRTEEDVNTVATCIYNAFPKNEEECIDYDFFMDYVRGPMSQERKDAVWNIFRRMDYDRDGNLNIIDIQACYNTQDHPTCSVDHLFQSDKMLKGFLTIWDENERCGLVPYAEFLDYYNGVSAVLEDDKVFFDVLNNQWKLL”, the “soluble on expression in E. coli” value is “soluble”.

Source of the values: the DeepSol protein solubility set.
